Results taken from patent US20130202609.
Residue numbers refer to the chain shown, from its start. Names may count otherwise.

B1: wild-type GAS57 (Spy0416), recombinant, purified from E. coli (protein)
chain 1: ADELSTMSEPTITNHAQQQAQHLTNTELSSAESKSQDTSQITLKTNREKEQSQDLVSEPTTTELADTDAASMANTGSDATQKSASLPPVNTDVHDWVKTKGAWDKGYKGQGKVVAVIDTGIDPAHQSMRISDVSTAKVKSKEDMLARQKAAGINYGSWINDKVVFAHNYVENSDNIKENQFEDFDEDWENFEFDAEAEPKAIKKHKIYRPQ
chain 2: STQAPKETVIKTEETDGSHDIDWTQTDDDTKYESHGMHVTGIVAGNSKEAAATGERFLGIAPEAQVMFMRVFANDIMGSAESLFIKAIEDAVALGADVINLSLGTANGAQLSGSKPLMEAIEKAKKAGVSVVVAAGNERVYGSDHDDPLATNPDYGLVGSPSTGRTPTSVAAINSKWVIQRLMTVKELENRADLNHGKAIYSESVDFKDIKDSLGYDKSHQFAYVKESTDAGYNAQDVKGKIALIERDPNKTYDEMIALAKKHGALGVLIFNNKPGQSNRSMRLTANGMGIPSAFISHEFGKAMSQLNGNGTGSLEFDSVVSKAPSQKGNEMNHFSNWGLTSDGYLKPDITAPGGDIYSTYNDNHYGSQTGTSMASPQIAGASLLVKQYLEKTQPNLPKEKIADIVKNLLMSNAQIHVNPETKTTTSPRQQGAGLLNIDGAVTSGLYVTGKDNYGSISLGNITDTMTFDVTVHNLSNKDKTLRYDTELLTDHVDPQKGRFTLTSHSLKTYQGGEVTVPANGKVTVRVTMDVSQFTKELTKQMPNGYYLEGFVRFRDSQDDQLNRVNIPFVGFKGQFENLAVAEESIYRLKSQGKTGFYFDESGPKDDIYVGKHFTGLVTLGSETNVSTKTISDNGLHTLGTFKNADGKFILEKNAQGNPVLAISPNGDNNQDFAAFKGVFLRKYQGLKASVYHASDKEHKNPLWVSPESFKGDKNFNSDIRFAKSTTLLGTAFSGKSLTGAELPDGHYHYVVSYYPDVVGAKRQEMTFDMILDRQKPVLSQATFDPETNRFKPEPLKDRGLAGVRKDSVFYLERKDNKPYTVTINDSYKYVSVEDNKTFVERQADGSFILPLDKAKLGDFYYMVEDFAGNVAIAKLGDHLPQTLGKTPIKLKLTDGNYQTKETLKDNLEMTQSDTGLVTNQAQLAVVHRNQPQSQLTKMNQDFFISPNEDGNKDFVAFKGLKNNVYNDLTVNVYAKDDHQKQTPIWSSQAGASVSAIESTAWYGITARGSKVMPGDYQYVVTYRDEHGKEHQKQYTISVNDKKPMITQGRFDTINGVDHFTPDKTKALDSSGIVREEVFYLAKKNGRKFDVTEGKDGITVSDNKVYIPKNPDGSYTISKRDGVTLSDYYYLVEDRAGNVSFATLRDLKAVGKDKAVVNFGLDLPVPEDKQIVNFTYLVRDADGKPIENLEYYNNSGNSLILPYGKYTVELLTYDTNAAKLESDKIVSFTLSADNNFQQVTFKITMLATSQITAHFDHLLPEGSRVSLKTAQDQLIPLEQSLYVPKAYGKTVQEGTYEVVVSLPKGYRIEGNTKVNTLPNEVHELSLRLVKVGDASDSTGDHKVMSKNNSQALTASATPT
B2: GAS57 mutant D151A, His-tagged (protein)
chain: ADELSTMSEPTITNHAQQQAQHLTNTELSSAESKSQDTSQITLKTNREKEQSQDLVSEPTTTELADTDAASMANTGSDATQKSASLPPVNTDVHDWVKTKGAWDKGYKGQGKVVAVIATGIDPAHQSMRISDVSTAKVKSKEDMLARQKAAGINYGSWINDKVVFAHNYVENSDNIKENQFEDFDEDWENFEFDAEAEPKAIKKHKIYRPQSTQAPKETVIKTEETDGSHDIDWTQTDDDTKYESHGMHVTGIVAGNSKEAAATGERFLGIAPEAQVMFMRVFANDIMGSAESLFIKAIEDAVALGADVINLSLGTANGAQLSGSKPLMEAIEKAKKAGVSVVVAAGNERVYGSDHDDPLATNPDYGLVGSPSTGRTPTSVAAINSKWVIQRLMTVKELENRADLNHGKAIYSESVDFKDIKDSLGYDKSHQFAYVKESTDAGYNAQDVKGKIALIERDPNKTYDEMIALAKKHGALGVLIFNNKPGQSNRSMRLTANGMGIPSAFISHEFGKAMSQLNGNGTGSLEFDSVVSKAPSQKGNEMNHFSNWGLTSDGYLKPDITAPGGDIYSTYNDNHYGSQTGTSMASPQIAGASLLVKQYLEKTQPNLPKEKIADIVKNLLMSNAQIHVNPETKTTTSPRQQGAGLLNIDGAVTSGLYVTGKDNYGSISLGNITDTMTFDVTVHNLSNKDKTLRYDTELLTDHVDPQKGRFTLTSHSLKTYQGGEVTVPANGKVTVRVTMDVSQFTKELTKQMPNGYYLEGFVRFRDSQDDQLNRVNIPFVGFKGQFENLAVAEESIYRLKSQGKTGFYFDESGPKDDIYVGKHFTGLVTLGSETNVSTKTISDNGLHTLGTFKNADGKFILEKNAQGNPVLAISPNGDNNQDFAAFKGVFLRKYQGLKASVYHASDKEHKNPLWVSPESFKGDKNFNSDIRFAKSTTLLGTAFSGKSLTGAELPDGHYHYVVSYYPDVVGAKRQEMTFDMILDRQKPVLSQATFDPETNRFKPEPLKDRGLAGVRKDSVFYLERKDNKPYTVTINDSYKYVSVEDNKTFVERQADGSFILPLDKAKLGDFYYMVEDFAGNVAIAKLGDHLPQTLGKTPIKLKLTDGNYQTKETLKDNLEMTQSDTGLVTNQAQLAVVHRNQPQSQLTKMNQDFFISPNEDGNKDFVAFKGLKNNVYNDLTVNVYAKDDHQKQTPIWSSQAGASVSAIESTAWYGITARGSKVMPGDYQYVVTYRDEHGKEHQKQYTISVNDKKPMITQGRFDTINGVDHFTPDKTKALDSSGIVREEVFYLAKKNGRKFDVTEGKDGITVSDNKVYIPKNPDGSYTISKRDGVTLSDYYYLVEDRAGNVSFATLRDLKAVGKDKAVVNFGLDLPVPEDKQIVNFTYLVRDADGKPIENLEYYNNSGNSLILPYGKYTVELLTYDTNAAKLESDKIVSFTLSADNNFQQVTFKITMLATSQITAHFDHLLPEGSRVSLKTAQDQLIPLEQSLYVPKAYGKTVQEGTYEVVVSLPKGYRIEGNTKVNTLPNEVHELSLRLVKVGDASDSTGDHKVMSKNNSQALTASATPT
B3: GAS57 mutant S617A, His-tagged (protein)
chain: B2 chain with A118D, S584A
B4: GAS57 double mutant D151A+S617A, His-tagged (protein)
chain: B2 chain with S584A

Target: interleukin-8 (IL-8; CXCL8)

Protein | IL-8 cleavage, SDS-PAGE with silver staining | percentage of uncleaved IL-8, ELISA | uncleaved IL-8 after 24 h incubation, ELISA | IL-8 cleavage, SDS-PAGE with silver staining, 24 hours
B1 | Wild-type GAS57 (lanes 2 and 3) released two bands: 8 kDa (active form) and 6 kDa (inactive cleaved IL-8) | wild-type GAS57 almost completely inactivated IL-8 after 8 hours, even at the lower concentration |  | 
B2 | the GAS57 D151A mutant released only one band, which corresponded to uncleaved IL-8, as in the control reaction (without enzyme) | no inactivation was observed for IL-8 treated with the mutant enzyme | the mutants release 100% of uncleaved IL-8 after 24 h incubation | 
B3 |  |  | the mutants release 100% of uncleaved IL-8 after 24 h incubation | unable to cleave IL-8, even at a 100-fold higher concentration than wild-type GAS57
B4 |  |  | the mutants release 100% of uncleaved IL-8 after 24 h incubation | unable to cleave IL-8, even at a 100-fold higher concentration than wild-type GAS57
